Here are results for one molecule from US20250230251A1.

For experiment [1], the target named is extracellular matrix (ECM) proteins. Kind of experiment: ECM (Matrigel) ELISA, 0.1 µM antibody. On the technique in general: An ELISA detects its analyte on a solid surface through an enzyme-linked reagent.
For experiment [2] the target is unchanged. Kind of experiment: ECM (Matrigel) ELISA, 1 µM antibody.

B1: P21 (antibody, human IgG1, kappa, V domains shown)
VH: QVQLQQSGPGLVKPSETLSLTCTVSGGSISNYYWTWIRQPPGKGLEWIGYISDSGSTNYNPSLKSRVTISVDTSKNQFSLKLSSVTAADTAVYYCARETIVVRGFYFYVMDVWGQGTTVTVSS
VL: AIQLTQSPSSLSASVGDRVTITCRASQGISSALAWYQQRPGKAPKLLIYDASNWESGVPSRFSGSGSGTDFTLTISSLQPEDFATYYCQQFNSYPWTFGQGTKVEIKR
Turning to B1, the ECM score in experiment [1] and in experiment [2] was 1.2 throughout.
